Measurements published in publication PMC4530586, “STIL binding to Polo-box 3 of PLK4 regulates centriole duplication” (eLife, 2015).

Molecular target: T1, human PLK4-PB3 (884–970), recombinant (human, UniProt O00444 884-970)
T1 construct: PLK4, human, residues 884–970 (Polo-box 3); isotope-labelled (2H, 15N, 13C) samples were used for NMR; also called Polo-box 3; source: E. coli BL21 DE3, purified (nickel resin, TEV cleavage, Superdex75 SEC); not shown: thioredoxin, N-terminal, cleaved; His6, N-terminal, cleaved
T1 sequence (looked up): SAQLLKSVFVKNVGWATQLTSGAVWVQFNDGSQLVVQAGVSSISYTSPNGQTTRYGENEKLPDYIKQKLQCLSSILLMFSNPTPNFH
Assay: ITC; synthetic STIL-CC peptide (414 µM) titrated into recombinant PB3 (35.5 µM); 50 mM Hepes pH 8.0, 150 mM NaCl, 1 mM TCEP; 25°C; 30 injections of 10 µl; one-site binding model
Conditions: both partners purified

B1: synthetic STIL-CC peptide (peptide, UniProt Q15468 720-751, looked up)
peptide: PDAYRFLTEQDRQLRLLQAQIQRLLEAQSLMP
notes: also called synthetic peptide corresponding to STIL-CC; source: synthetic peptide
Q: Which results are given for B1?
A: Kd: 280 ± 60 nM; stoichiometry N: 1
